Tested on: Escherichia coli TOP10
Test: shrunken log2 fold change of peptide-encoding DNA abundance (4.5 h post-induction vs induction); higher = less antimicrobial activity (less host growth inhibition)
Details: time post-induction: 4.5 h; library: site-saturation at positions 5, 18, 19, 20
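Further: peptides expressed intracellularly from a pBAD plasmid library in pooled LB shake-flask culture, induced with 0.3% L-arabinose, DNA abundance read by NGS, three biological replicates, DESeq2 with apeglm shrinkage.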

Sequence | shrunken log2 fold change
RRIRIRPPRLPRPRPRPPVTPRP | -0.287
RRIRIRPPRLPRPRPRPPWNPRP | -0.403
RRIRIRPPRLPRPRPRPPYIPRP | -0.299
RRIRIRPPRLPRPRPRPQAHPRP | -0.261
RRIRIRPPRLPRPRPRPQAKPRP | 0.2
RRIRIRPPRLPRPRPRPQCLPRP | -0.47
RRIRIRPPRLPRPRPRPQCYPRP | -0.0646
RRIRIRPPRLPRPRPRPQDEPRP | 0.0381
RRIRIRPPRLPRPRPRPQEEPRP | 0.0133
RRIRIRPPRLPRPRPRPQERPRP | -0.17
RRIRIRPPRLPRPRPRPQFKPRP | -0.609
RRIRIRPPRLPRPRPRPQFMPRP | -0.831
RRIRIRPPRLPRPRPRPQGGPRP | 0.102
RRIRIRPPRLPRPRPRPQHQPRP | -0.344
RRIRIRPPRLPRPRPRPQILPRP | 0.0356
RRIRIRPPRLPRPRPRPQKKPRP | -0.0235
RRIRIRPPRLPRPRPRPQNVPRP | -0.173
RRIRIRPPRLPRPRPRPQPTPRP | 0.115
RRIRIRPPRLPRPRPRPQRFPRP | -0.231
RRIRIRPPRLPRPRPRPQRNPRP | -0.188
RRIRIRPPRLPRPRPRPQSLPRP | -0.321
RRIRIRPPRLPRPRPRPQWCPRP | 0.307
RRIRIRPPRLPRPRPRPQYTPRP | -1.18
RRIRIRPPRLPRPRPRPRAFPRP | -0.0671
RRIRIRPPRLPRPRPRPRAHPRP | -0.201

Sequence | shrunken log2 fold change
RRIRIRPPRLPRPRPRPRCEPRP | -0.0571
RRIRIRPPRLPRPRPRPRDAPRP | 0.215
RRIRIRPPRLPRPRPRPRESPRP | 0.133
RRIRIRPPRLPRPRPRPRFQPRP | -0.0961
RRIRIRPPRLPRPRPRPRHEPRP | 0.0234
RRIRIRPPRLPRPRPRPRHRPRP | -0.0972
RRIRIRPPRLPRPRPRPRHYPRP | -0.177
RRIRIRPPRLPRPRPRPRINPRP | -0.482
RRIRIRPPRLPRPRPRPRKAPRP | -0.000442
RRIRIRPPRLPRPRPRPRKDPRP | -0.387
RRIRIRPPRLPRPRPRPRKEPRP | 0.00489
RRIRIRPPRLPRPRPRPRKSPRP | -0.169
RRIRIRPPRLPRPRPRPRLHPRP | -0.341
RRIRIRPPRLPRPRPRPRLLPRP | -0.003
RRIRIRPPRLPRPRPRPRLQPRP | 0.123
RRIRIRPPRLPRPRPRPRMIPRP | 2.5
RRIRIRPPRLPRPRPRPRMPPRP | -0.0534
RRIRIRPPRLPRPRPRPRMTPRP | 0.043
RRIRIRPPRLPRPRPRPRPGPRP | 0.618
RRIRIRPPRLPRPRPRPRPSPRP | 0.322
RRIRIRPPRLPRPRPRPRQCPRP | -0.127
RRIRIRPPRLPRPRPRPRQTPRP | -0.0527
RRIRIRPPRLPRPRPRPRRKPRP | 0.0881
RRIRIRPPRLPRPRPRPRSVPRP | -0.056
RRIRIRPPRLPRPRPRPRTLPRP | -0.259

Sequence | shrunken log2 fold change
RRIRIRPPRLPRPRPRPRWLPRP | 0.119
RRIRIRPPRLPRPRPRPRYPPRP | -0.0444
RRIRIRPPRLPRPRPRPSAFPRP | -0.15
RRIRIRPPRLPRPRPRPSCPPRP | -0.776
RRIRIRPPRLPRPRPRPSDRPRP | -0.24
RRIRIRPPRLPRPRPRPSGPPRP | -0.21
RRIRIRPPRLPRPRPRPSGQPRP | -0.0453
RRIRIRPPRLPRPRPRPSHAPRP | -0.283
RRIRIRPPRLPRPRPRPSLCPRP | -0.242
RRIRIRPPRLPRPRPRPSNFPRP | -0.335
RRIRIRPPRLPRPRPRPSNMPRP | -0.353
RRIRIRPPRLPRPRPRPSRSPRP | -0.605
RRIRIRPPRLPRPRPRPSSVPRP | -1.03
RRIRIRPPRLPRPRPRPSTKPRP | -1.14
RRIRIRPPRLPRPRPRPSTQPRP | -0.0353
RRIRIRPPRLPRPRPRPTAHPRP | -0.313
RRIRIRPPRLPRPRPRPTCEPRP | -0.132
RRIRIRPPRLPRPRPRPTCFPRP | -0.249
RRIRIRPPRLPRPRPRPTCQPRP | -0.215
RRIRIRPPRLPRPRPRPTDFPRP | -0.109
RRIRIRPPRLPRPRPRPTEIPRP | -0.305
RRIRIRPPRLPRPRPRPTETPRP | 0.0225
RRIRIRPPRLPRPRPRPTFSPRP | -0.545
RRIRIRPPRLPRPRPRPTIQPRP | -0.334
RRIRIRPPRLPRPRPRPTIWPRP | -0.157
